For assay [1], the target named is IL-13 (human) (UniProt P35225). The assay can be described thus: competition ELISA; 1 h incubation.
For assay [2], the target named is IL-13 (human) (UniProt P35225). The assay can be described thus: competition ELISA; 1 h incubation. This is another data set of the same source.
The target of assay [3] is IL-13 (human) (UniProt P35225). In words: competition ELISA; 24 h incubation.
Assay [4] concerns the target IL-13 (human) (UniProt P35225). The assay can be described thus: competition ELISA; 24 h incubation. This is another data set of the same source.

Chain of IL-13 (human) (P35225 35-146): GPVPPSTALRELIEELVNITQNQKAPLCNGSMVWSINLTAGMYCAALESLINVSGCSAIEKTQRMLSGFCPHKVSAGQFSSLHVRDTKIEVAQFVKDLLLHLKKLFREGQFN

Consider CAT-354, for which the EC50 with IL-13 (human) [1] worked out at 2.1 nM; with IL-13 (human) [2] it was 0.25 nM; with IL-13 (human) [3], 2.28 nM; with IL-13 (human) [4], 0.54 nM.
As to CAT-354 fab, the EC50 with IL-13 (human) [1] (Fab) came to 3.56 nM; in the assay with IL-13 (human) [4] (Fab), 4 nM.

Source of the values: US20190343963A1.
